We go through 24 substances from patent publication US20240294646A1.

Experiment [1] addresses Soluble FcγRIIb extracellular domain with C-terminal 10xHis tag (UniProt P31994). The experiment can be described thus: SPR; IIb/IIaR selectivity against control v27294.
Experiment [2] shares this target. The experiment can be described thus: SPR; FcγRIIb affinity fold against control v27294.
The target is the same in experiment [3]. Briefly: SPR; IIb-Fold / IIaR-Fold (FcγRIIb over FcγRIIaR).
Experiment [4] has as its target Soluble FcγRIIaR extracellular domain with C-terminal 10xHis tag (UniProt P12318). The experiment can be described thus: SPR, antibody captured on HER2, receptor as analyte; affinity fold over wild-type v16463.
Experiment [5] concerns the target Soluble FcγRIIb extracellular domain with C-terminal 10xHis tag (UniProt P31994). The description is as above.

Chain of Soluble FcγRIIaR extracellular domain with C-terminal 10xHis tag (P12318 other isoform, or with tags, fused parts or gaps): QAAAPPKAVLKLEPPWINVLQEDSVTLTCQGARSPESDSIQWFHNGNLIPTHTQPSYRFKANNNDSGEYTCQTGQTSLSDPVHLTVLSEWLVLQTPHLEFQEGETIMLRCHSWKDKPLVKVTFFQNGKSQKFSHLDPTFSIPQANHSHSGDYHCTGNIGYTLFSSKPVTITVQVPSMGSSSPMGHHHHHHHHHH
Chain of Soluble FcγRIIb extracellular domain with C-terminal 10xHis tag (P31994 other isoform, or with tags, fused parts or gaps): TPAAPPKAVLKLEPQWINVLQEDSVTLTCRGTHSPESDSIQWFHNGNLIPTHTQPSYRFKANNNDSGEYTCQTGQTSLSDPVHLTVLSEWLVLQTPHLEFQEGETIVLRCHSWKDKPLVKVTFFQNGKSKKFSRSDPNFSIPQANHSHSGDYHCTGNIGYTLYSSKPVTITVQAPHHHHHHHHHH

Substance “Variant v26739, A_P271N_strat2, one-armed trastuzumab antibody” came in with an IIb Selectivity Improvement wrt Control in experiment [1] of 1.1 fold. Further, the IIb-Fold wrt Control in experiment [2] came out at 0.5 fold. In addition, in experiment [3], the IIb Selectivity stood at 14.9 fold. In experiment [4], this substance gave an IIaR-fold of 3.4 fold. For the same substance, in experiment [5], the IIb-Fold turned out to be 50.9 fold.
In experiment [1], “Variant v26716, A_D270F_strat2, one-armed trastuzumab antibody” yielded an IIb Selectivity Improvement wrt Control of 1 fold. For the same substance, the IIb-Fold wrt Control in experiment [2] was found to be 0.9 fold. Moreover, the IIb Selectivity in experiment [3] is 13.5 fold. Besides, the IIaR-fold in experiment [4] stood at 6.4 fold. Further, in experiment [5], the IIb-Fold turned out to be 86.7 fold.
In experiment [1], “Variant v26722, A_D270N_strat2, one-armed trastuzumab antibody” had an IIb Selectivity Improvement wrt Control of 1.3 fold. In experiment [2], this substance showed an IIb-Fold wrt Control of 0.7 fold. Also, the IIb Selectivity in experiment [3] stood at 16.7 fold. The IIaR-fold in experiment [4] was 4 fold. This substance also yielded an IIb-Fold in experiment [5] of 67.4 fold.
In the same order, the values of “Variant v26717, A_D270W_strat2, one-armed trastuzumab antibody” are 1.1 fold, 0.6 fold, 14.5 fold, 3.7 fold and 53.5 fold.
For “Variant v26756, A_E272N_strat2, one-armed trastuzumab antibody” the same measures were 1.2 fold, 0.6 fold, 15.8 fold, 3.6 fold and 57.6 fold.
Take “Variant v26744, A_P271H_strat2, one-armed trastuzumab antibody”: in experiment [1], the IIb Selectivity Improvement wrt Control came out at 1.1 fold. In addition, the IIb-Fold wrt Control in experiment [2] turned out to be 0.6 fold. In experiment [3], this substance returned an IIb Selectivity of 15.1 fold. In experiment [4], this substance returned an IIaR-fold of 3.9 fold. The substance also gave an IIb-Fold in experiment [5] of 59.3 fold.
The substance “Variant v26740, A_P271D_strat2, one-armed trastuzumab antibody” yielded an IIb Selectivity Improvement wrt Control in experiment [1] of 1.1 fold. For the same substance, in experiment [2], the IIb-Fold wrt Control turned out to be 0.5 fold. In experiment [3], this substance yielded an IIb Selectivity of 14.9 fold. Moreover, the IIaR-fold in experiment [4] came to 3.4 fold. The IIb-Fold in experiment [5] was found to be 50.5 fold.
In experiment [1], “Variant v26741, A_P271E_strat2, one-armed trastuzumab antibody” gave an IIb Selectivity Improvement wrt Control of 0.9 fold. Besides, the IIb-Fold wrt Control in experiment [2] was 0.6 fold. This substance also returned an IIb Selectivity in experiment [3] of 11.7 fold. For the same substance, the IIaR-fold in experiment [4] turned out to be 5.1 fold. In addition, the IIb-Fold in experiment [5] came out at 59.3 fold.
In the same order, the values of “Variant v26750, A_E272F_strat2, one-armed trastuzumab antibody” are 1 fold, 0.7 fold, 13.5 fold, 4.5 fold and 61.2 fold.
For “Variant v26719, A_D270T_strat2, one-armed trastuzumab antibody” the same measures were 1 fold, 0.7 fold, 13.2 fold, 4.9 fold and 64.2 fold.
In experiment [1], “Variant v26718, A_D270Y_strat2, one-armed trastuzumab antibody” came in with an IIb Selectivity Improvement wrt Control of 0.9 fold. The same substance showed an IIb-Fold wrt Control in experiment [2] of 0.6 fold. In experiment [3], this substance came in with an IIb Selectivity of 12.1 fold. The substance also returned an IIaR-fold in experiment [4] of 4.5 fold. The IIb-Fold in experiment [5] is 54.6 fold.
For “Variant v26726, A_D270H_strat2, one-armed trastuzumab antibody” the same measures were 1.1 fold, 0.7 fold, 14.9 fold, 4.1 fold and 61.7 fold.
Substance “Variant v26746, A_E272A_strat2, one-armed trastuzumab antibody” showed an IIb Selectivity Improvement wrt Control in experiment [1] of 1.2 fold. The substance also displayed an IIb-Fold wrt Control in experiment [2] of 0.8 fold. In experiment [3], this substance came in with an IIb Selectivity of 15.9 fold. In experiment [4], the IIaR-fold is 4.5 fold. In experiment [5], the IIb-Fold stood at 70.8 fold.
For “Variant v26748, A_E272L_strat2, one-armed trastuzumab antibody” the same measures were 1.1 fold, 0.9 fold, 15.2 fold, 5.3 fold and 81.3 fold.
In the same order, the values of “Variant v26757, A_E272D_strat2, one-armed trastuzumab antibody” are 1 fold, 0.7 fold, 13.5 fold, 4.9 fold and 66.6 fold.
As to “Variant v26712, A_D270A_strat2, one-armed trastuzumab antibody”, in experiment [1], the IIb Selectivity Improvement wrt Control worked out at 1 fold. Besides, the IIb-Fold wrt Control in experiment [2] came to 0.5 fold. In experiment [3], this substance gave an IIb Selectivity of 13 fold. For the same substance, the IIaR-fold in experiment [4] was 3.8 fold. In experiment [5], this substance yielded an IIb-Fold of 49.9 fold.
For “Variant v26745, A_E272G_strat2, one-armed trastuzumab antibody” the same measures were 0.9 fold, 0.6 fold, 11.6 fold, 4.5 fold and 51.6 fold.
For “Variant v26753, A_E272T_strat2, one-armed trastuzumab antibody”, the IIb Selectivity Improvement wrt Control in experiment [1] stood at 1.1 fold. Further, the IIb-Fold wrt Control in experiment [2] came to 0.7 fold. The substance also registered an IIb Selectivity in experiment [3] of 14.7 fold. For the same substance, in experiment [4], the IIaR-fold was 4.3 fold. In experiment [5], this substance registered an IIb-Fold of 62.8 fold.
Substance “Variant v26728, A_P271G_strat2, one-armed trastuzumab antibody” displayed an IIb-Fold wrt Control in experiment [2] of 0.7 fold. The substance further showed an IIb Selectivity in experiment [3] of 13.5 fold. Moreover, in experiment [4], the IIaR-fold amounted to 4.8 fold. Besides, the IIb-Fold in experiment [5] stood at 65.4 fold.
With “Variant v26721, A_D270Q_strat2, one-armed trastuzumab antibody”, the IIb Selectivity Improvement wrt Control in experiment [1] worked out at 1.1 fold. For the same substance, in experiment [2], the IIb-Fold wrt Control was 0.6 fold. Moreover, in experiment [3], the IIb Selectivity is 14.6 fold. This substance also gave an IIaR-fold in experiment [4] of 3.6 fold. The substance also came in with an IIb-Fold in experiment [5] of 51.7 fold.
For “Variant v26760, A_E272H_strat2, one-armed trastuzumab antibody” the same measures were 1.1 fold, 0.8 fold, 15.3 fold, 4.9 fold and 74.1 fold.
For the substance “Variant v26732, A_P271I_strat2, one-armed trastuzumab antibody”, in experiment [2], the IIb-Fold wrt Control is 0.6 fold. For the same substance, in experiment [3], the IIb Selectivity is 12.9 fold. Also, in experiment [4], the IIaR-fold amounted to 4.4 fold. This substance also gave an IIb-Fold in experiment [5] of 56.9 fold.
In experiment [1], “Variant v26723, A_D270E_strat2, one-armed trastuzumab antibody” showed an IIb Selectivity Improvement wrt Control of 1.1 fold. In experiment [2], this substance displayed an IIb-Fold wrt Control of 1.2 fold. Also, the IIaR-fold in experiment [4] was found to be 7.3 fold. This substance gave an IIb-Fold in experiment [5] of 109 fold.
The substance “Variant v26730, A_P271V_strat2, one-armed trastuzumab antibody” returned an IIb Selectivity Improvement wrt Control in experiment [1] of 1.1 fold. In experiment [2], this substance registered an IIb-Fold wrt Control of 0.6 fold. The substance further returned an IIaR-fold in experiment [4] of 3.6 fold. Besides, in experiment [5], the IIb-Fold is 54.4 fold.
